This note sets out measurements from publication PMC5948571, “Detection of Metallothionein in Javanese Medaka (Oryzias javanicus), Using a scFv-Immobilized Protein Chip” (Sensors (Basel, Switzerland), 2018).

In the assay the target is T1, BSA (Bos taurus, UniProt P02769).
T1 construct: BSA (serum albumin), used as negative control protein; also called control protein
Put plainly: SPR; scFv-Cys3 (50 µg/mL) immobilised directly on a gold chip by thiol-gold, blocked with PEG-thiol; OjaMT (5-30 µg/mL) or BSA (30 µg/mL) flowed at 10 µL/min for 10 min, PBS wash; PBS, room temperature; portable MiCo SPR nano. To be noted: both partners purified. For orientation: Surface plasmon resonance follows binding to a sensor surface in real time, without labels.

T1 sequence (P02769 25-607): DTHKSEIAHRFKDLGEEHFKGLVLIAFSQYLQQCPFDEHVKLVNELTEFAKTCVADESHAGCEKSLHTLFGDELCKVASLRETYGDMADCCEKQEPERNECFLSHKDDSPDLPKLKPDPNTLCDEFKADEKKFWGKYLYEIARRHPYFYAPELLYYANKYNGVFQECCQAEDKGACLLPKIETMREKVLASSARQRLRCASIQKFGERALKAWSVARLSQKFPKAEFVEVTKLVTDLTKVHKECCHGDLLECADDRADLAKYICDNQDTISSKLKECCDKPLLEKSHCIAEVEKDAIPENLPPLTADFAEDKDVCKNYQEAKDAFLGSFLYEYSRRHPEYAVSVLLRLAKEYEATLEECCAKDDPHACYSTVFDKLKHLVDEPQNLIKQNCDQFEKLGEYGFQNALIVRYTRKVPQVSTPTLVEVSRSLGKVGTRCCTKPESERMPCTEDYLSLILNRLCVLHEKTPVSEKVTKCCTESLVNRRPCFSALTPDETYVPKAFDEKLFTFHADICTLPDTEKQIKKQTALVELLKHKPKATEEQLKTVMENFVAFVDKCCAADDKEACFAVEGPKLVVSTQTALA

B1: Cys3-tagged anti-OjaMT single-chain fragment of variable region (scFv-Cys3) (scFv, V domains shown)
VH: EVQLQQSGAELVKPGASVKLSCKASGYTFTSYSMHWVKQRPGQGLEWIGEINPSNGRTNYNEKFKSKATLTVDKSSSTAYMQVSSLTSEDSAVYYCARRSSYWYFDVWGAGTTVTVSS
VL: DVLMTQTPASQSASLGESVTITCLASQTIGTWLAWYQQKPGKSPQLLIYAATSLADGVPSRFSGSGSGTKFSFKISSLQAEDFVSYYCQQLCNPPYTFGGRHQAGNQ
notes: VH of the anti-OjaMT hybridoma, 119 amino acids; (GGGGS)3 GS-linker, 15 amino acids; VL of the anti-OjaMT hybridoma, 107 amino acids; VH-linker-VL cloned NdeI/HindIII in pET-28a(+) (pJDH033); a GS-linker-Cys3 fragment was put into the HindIII/XhoI sites (pJDH043); also called anti-OjaMT scFv; recombinant scFv; not shown: GS-linker-Cys3, C-terminal, kept
Take B1: the binding result is “no binding (tested: 30 μg/mL)”.
